Results as given in patent publication US20240018260A1 (AMUNIX PHARMACEUTICALS, published 2024).

T1: human EpCAM on EpCAM positive human carcinoma cells (SW480, SK-OV-3) (human, UniProt P16422 24-314)
T1 sequence (looked up): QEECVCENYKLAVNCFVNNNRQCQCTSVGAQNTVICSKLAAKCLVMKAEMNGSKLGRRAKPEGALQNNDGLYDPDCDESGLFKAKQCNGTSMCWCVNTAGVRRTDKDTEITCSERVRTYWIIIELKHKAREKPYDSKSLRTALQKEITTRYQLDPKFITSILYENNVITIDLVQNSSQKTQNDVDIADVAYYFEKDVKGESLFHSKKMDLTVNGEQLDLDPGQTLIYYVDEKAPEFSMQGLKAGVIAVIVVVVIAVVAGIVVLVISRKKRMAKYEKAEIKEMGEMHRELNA


Target: T1, human EpCAM on EpCAM positive human …
Assay: cell-based or functional assay

Row | Binder | EC50, LDH release cytotoxicity, PBMC:SW480 5:1 [nM]
1 | AC1278 His(8)-aEpCAM-aCD3-BSRS1-XTEN_AE864, protease-untreated (intact) anti-EpCAM×anti-CD3 ProTIA (bispecific antibody) HHHHHHHHELVMTQSPSSLTVTAGEKVTMSCKSSQSLLNSGNQKNYLTWYQQKPGQPPKLLIYWASTRESGVPDRFTGSGSGTDFTLTISSVQAEDLAVYYCQNDYSYPLTFGAGTKLEIKGGGGSGGGGSGGGGSEVQLLEQSGAELVRPGTSVKISCKASGYAFTNYWLGWVKQRPGHGLEWIGDIFPGSGNIHYNEKFKGKATLTADKSSSTAYMQLSSLTFEDSAVYFCARLRNWDEPMDYWGQGTTVTVSSGGGGSDVQLVQSGAEVKKPGASVKVSCKASGYTFTRYTMHWVRQAPGQGLEWIGYINPSRGYTNYADSVKGRFTITTDKSTSTAYMELSSLRSEDTATYYCARYYDDHYCLDYWGQGTTVTVSSGEGTSTGSGGSGGSGGADDIVLTQSPATLSLSPGERATLSCRASQSVSYMNWYQQKPGKAPKRWIYDTSKVASGVPARFSGSGSGTDYSLTINSLEAEDAATYYCQQWSSNPLTFGGGTKVEIKGTAEAASASGLSGRSDNHSPLGLAGSPGSPAGSPTSTEEGTSESATPESGPGTSTEPSEGSAPGSPAGSPTSTEEGTSTEPSEGSAPGTSTEPSEGSAPGTSESATPESGPGSEPATSGSETPGSEPATSGSETPGSPAGSPTSTEEGTSESATPESGPGTSTEPSEGSAPGTSTEPSEGSAPGSPAGSPTSTEEGTSTEPSEGSAPGTSTEPSEGSAPGTSESATPESGPGTSTEPSEGSAPGTSESATPESGPGSEPATSGSETPGTSTEPSEGSAPGTSTEPSEGSAPGTSESATPESGPGTSESATPESGPGSPAGSPTSTEEGTSESATPESGPGSEPATSGSETPGTSESATPESGPGTSTEPSEGSAPGTSTEPSEGSAPGTSTEPSEGSAPGTSTEPSEGSAPGTSTEPSEGSAPGTSTEPSEGSAPGSPAGSPTSTEEGTSTEPSEGSAPGTSESATPESGPGSEPATSGSETPGTSESATPESGPGSEPATSGSETPGTSESATPESGPGTSTEPSEGSAPGTSESATPESGPGSPAGSPTSTEEGSPAGSPTSTEEGSPAGSPTSTEEGTSESATPESGPGTSTEPSEGSAPGTSESATPESGPGSEPATSGSETPGTSESATPESGPGSEPATSGSETPGTSESATPESGPGTSTEPSEGSAPGSPAGSPTSTEEGTSESATPESGPGSEPATSGSETPGTSESATPESGPGSPAGSPTSTEEGSPAGSPTSTEEGTSTEPSEGSAPGTSESATPESGPGTSESATPESGPGTSESATPESGPGSEPATSGSETPGSEPATSGSETPGSPAGSPTSTEEGTSTEPSEGSAPGTSTEPSEGSAPGSEPATSGSETPGTSESATPESGPGTSTEPSEGSAPG | 0.288
2 | Protease-treated (MMP-9 cleaved) AC1278, His(8)-aEpCAM-aCD3 cleaved fragment (bispecific antibody) HHHHHHHHELVMTQSPSSLTVTAGEKVTMSCKSSQSLLNSGNQKNYLTWYQQKPGQPPKLLIYWASTRESGVPDRFTGSGSGTDFTLTISSVQAEDLAVYYCQNDYSYPLTFGAGTKLEIKGGGGSGGGGSGGGGSEVQLLEQSGAELVRPGTSVKISCKASGYAFTNYWLGWVKQRPGHGLEWIGDIFPGSGNIHYNEKFKGKATLTADKSSSTAYMQLSSLTFEDSAVYFCARLRNWDEPMDYWGQGTTVTVSSGGGGSDVQLVQSGAEVKKPGASVKVSCKASGYTFTRYTMHWVRQAPGQGLEWIGYINPSRGYTNYADSVKGRFTITTDKSTSTAYMELSSLRSEDTATYYCARYYDDHYCLDYWGQGTTVTVSSGEGTSTGSGGSGGSGGADDIVLTQSPATLSLSPGERATLSCRASQSVSYMNWYQQKPGKAPKRWIYDTSKVASGVPARFSGSGSGTDYSLTINSLEAEDAATYYCQQWSSNPLTFGGGTKVEIKGTAEAASASGLSGRSDNHSPLG | 0.0089
3 | AC1357, non-cleavable anti-EpCAM×anti-CD3 ProTIA without the release segment (bispecific antibody) HHHHHHHHELVMTQSPSSLTVTAGEKVTMSCKSSQSLLNSGNQKNYLTWYQQKPGQPPKLLIYWASTRESGVPDRFTGSGSGTDFTLTISSVQAEDLAVYYCQNDYSYPLTFGAGTKLEIKGGGGSGGGGSGGGGSEVQLLEQSGAELVRPGTSVKISCKASGYAFTNYWLGWVKQRPGHGLEWIGDIFPGSGNIHYNEKFKGKATLTADKSSSTAYMQLSSLTFEDSAVYFCARLRNWDEPMDYWGQGTTVTVSSGGGGSDVQLVQSGAEVKKPGASVKVSCKASGYTFTRYTMHWVRQAPGQGLEWIGYINPSRGYTNYADSVKGRFTITTDKSTSTAYMELSSLRSEDTATYYCARYYDDHYCLDYWGQGTTVTVSSGEGTSTGSGGSGGSGGADDIVLTQSPATLSLSPGERATLSCRASQSVSYMNWYQQKPGKAPKRWIYDTSKVASGVPARFSGSGSGTDYSLTINSLEAEDAATYYCQQWSSNPLTFGGGTKVEIKGSPGSPAGSPTSTEEGTSESATPESGPGTSTEPSEGSAPGSPAGSPTSTEEGTSTEPSEGSAPGTSTEPSEGSAPGTSESATPESGPGSEPATSGSETPGSEPATSGSETPGSPAGSPTSTEEGTSESATPESGPGTSTEPSEGSAPGTSTEPSEGSAPGSPAGSPTSTEEGTSTEPSEGSAPGTSTEPSEGSAPGTSESATPESGPGTSTEPSEGSAPGTSESATPESGPGSEPATSGSETPGTSTEPSEGSAPGTSTEPSEGSAPGTSESATPESGPGTSESATPESGPGSPAGSPTSTEEGTSESATPESGPGSEPATSGSETPGTSESATPESGPGTSTEPSEGSAPGTSTEPSEGSAPGTSTEPSEGSAPGTSTEPSEGSAPGTSTEPSEGSAPGTSTEPSEGSAPGSPAGSPTSTEEGTSTEPSEGSAPGTSESATPESGPGSEPATSGSETPGTSESATPESGPGSEPATSGSETPGTSESATPESGPGTSTEPSEGSAPGTSESATPESGPGSPAGSPTSTEEGSPAGSPTSTEEGSPAGSPTSTEEGTSESATPESGPGTSTEPSEGSAPGTSESATPESGPGSEPATSGSETPGTSESATPESGPGSEPATSGSETPGTSESATPESGPGTSTEPSEGSAPGSPAGSPTSTEEGTSESATPESGPGSEPATSGSETPGTSESATPESGPGSPAGSPTSTEEGSPAGSPTSTEEGTSTEPSEGSAPGTSESATPESGPGTSESATPESGPGTSESATPESGPGSEPATSGSETPGSEPATSGSETPGSPAGSPTSTEEGTSTEPSEGSAPGTSTEPSEGSAPGSEPATSGSETPGTSESATPESGPGTSTEPSEGSAPG | 3.3
